Results reported in patent publication US20060280740A1.

How the values were obtained:
[1] = target: KIR2DL1 recombinant protein (entire extracellular domain, produced in E. coli, immobilized on Biacore chip) (human) (UniProt P43626); assay: SPR, KIR2DL1 chip; second Ab after first Ab EB6
[2] = target: KIR2DL1 recombinant protein (entire extracellular domain, produced in E. coli, immobilized on Biacore chip) (human) (UniProt P43626); assay: SPR competition, KIR2DL1 chip; competitor (second Ab) Pan2D
[3] = target: KIR2DL1 recombinant protein (entire extracellular domain, produced in E. coli, immobilized on Biacore chip) (human) (UniProt P43626); assay: SPR, KIR2DL1 chip; second Ab alone (field of first Ab 1-6 F1)
[4] = target: KIR2DL1 recombinant protein (entire extracellular domain, produced in E. coli, immobilized on Biacore chip) (human) (UniProt P43626); assay: SPR competition, KIR2DL1 chip; competitor (second Ab) EB6 (self)
[5] = target: KIR2DL1 recombinant protein (entire extracellular domain, produced in E. coli, immobilized on Biacore chip) (human) (UniProt P43626); assay: SPR competition, KIR2DL1 chip; competitor (second Ab) 1-6 F1
[6] = target: KIR2DL1 recombinant protein (entire extracellular domain, produced in E. coli, immobilized on Biacore chip) (human) (UniProt P43626); assay: SPR competition, KIR2DL1 chip; competitor (second Ab) DF200
[7] = target: KIR2DL1 recombinant protein (entire extracellular domain, produced in E. coli, immobilized on Biacore chip) (human) (UniProt P43626); assay: SPR competition, KIR2DL1 chip; competitor (second Ab) 1-7 F9
[8] = target: KIR2DL1 recombinant protein (entire extracellular domain, produced in E. coli, immobilized on Biacore chip) (human) (UniProt P43626); assay: SPR, KIR2DL1 chip; second Ab after first Ab 1-7 F9
[9] = target: KIR2DL1 recombinant protein (entire extracellular domain, produced in E. coli, immobilized on Biacore chip) (human) (UniProt P43626); assay: SPR, KIR2DL1 chip; second Ab alone (field of first Ab 1-7 F9)
[10] = target: KIR2DL1 recombinant protein (entire extracellular domain, produced in E. coli, immobilized on Biacore chip) (human) (UniProt P43626); assay: SPR, KIR2DL1 chip; second Ab alone (field of first Ab EB6)
[11] = target: KIR2DL1 recombinant protein (entire extracellular domain, produced in E. coli, immobilized on Biacore chip) (human) (UniProt P43626); assay: SPR, KIR2DL1 chip; second Ab after first Ab 1-6 F1
[12] = target: KIR2DL1 recombinant protein (entire extracellular domain, produced in E. coli, immobilized on Biacore chip) (human) (UniProt P43626); assay: SPR competition, KIR2DL1 chip; competitor (second Ab) 1-4 F1
[13] = target: KIR2DL3 recombinant protein (entire extracellular domain, produced in E. coli, immobilized on Biacore chip) (human) (UniProt P43628); assay: SPR, KIR2DL3 chip; second Ab alone (field of first Ab 1-7 F9)
KIR2DL3 recombinant protein (entire extracellular domain, produced in E. coli, immobilized on Biacore chip) (human), sequence (P43628 22-245): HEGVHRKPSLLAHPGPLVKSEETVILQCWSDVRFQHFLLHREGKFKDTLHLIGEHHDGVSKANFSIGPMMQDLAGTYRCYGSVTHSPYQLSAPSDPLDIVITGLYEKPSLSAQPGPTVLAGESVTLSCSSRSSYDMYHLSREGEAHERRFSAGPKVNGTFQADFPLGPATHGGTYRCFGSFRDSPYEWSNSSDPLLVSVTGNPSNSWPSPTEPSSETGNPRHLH

[14] = target: KIR2DL3 recombinant protein (entire extracellular domain, produced in E. coli, immobilized on Biacore chip) (human) (UniProt P43628); assay: SPR competition, KIR2DL3 chip; competitor (second Ab) 1-6 F1
[15] = target: KIR2DL3 recombinant protein (entire extracellular domain, produced in E. coli, immobilized on Biacore chip) (human) (UniProt P43628); assay: SPR, KIR2DL3 chip; second Ab after first Ab 1-4 F1
[16] = target: KIR2DL3 recombinant protein (entire extracellular domain, produced in E. coli, immobilized on Biacore chip) (human) (UniProt P43628); assay: SPR, KIR2DL3 chip; second Ab after first Ab 1-7 F9
[17] = target: KIR2DL3 recombinant protein (entire extracellular domain, produced in E. coli, immobilized on Biacore chip) (human) (UniProt P43628); assay: SPR competition, KIR2DL3 chip; competitor (second Ab) Pan2D
[18] = target: KIR2DL3 recombinant protein (entire extracellular domain, produced in E. coli, immobilized on Biacore chip) (human) (UniProt P43628); assay: SPR, KIR2DL3 chip; second Ab after first Ab 1-6 F1
[19] = target: KIR2DL3 recombinant protein (entire extracellular domain, produced in E. coli, immobilized on Biacore chip) (human) (UniProt P43628); assay: SPR competition, KIR2DL3 chip; competitor (second Ab) DF200
[20] = target: KIR2DL3 recombinant protein (entire extracellular domain, produced in E. coli, immobilized on Biacore chip) (human) (UniProt P43628); assay: SPR competition, KIR2DL3 chip; competitor (second Ab) 1-7 F9
[21] = target: KIR2DL3 recombinant protein (entire extracellular domain, produced in E. coli, immobilized on Biacore chip) (human) (UniProt P43628); assay: SPR, KIR2DL3 chip; second Ab alone (field of first Ab 1-6 F1)
[22] = target: KIR2DL3 recombinant protein (entire extracellular domain, produced in E. coli, immobilized on Biacore chip) (human) (UniProt P43628); assay: SPR competition, KIR2DL3 chip; competitor (second Ab) 1-4 F1
[23] = target: KIR2DL3 recombinant protein (entire extracellular domain, produced in E. coli, immobilized on Biacore chip) (human) (UniProt P43628); assay: SPR, KIR2DL3 chip; second Ab alone (field of first Ab 1-4 F1)
immobilized KIR 2DS1 [24] = target: immobilized KIR 2DS1 (UniProt Q14954); assay: SPR competition, KIR2DS1 chip; competitor (second Ab) Pan2D
immobilized KIR 2DS1, sequence (Q14954 22-245 limits assumed): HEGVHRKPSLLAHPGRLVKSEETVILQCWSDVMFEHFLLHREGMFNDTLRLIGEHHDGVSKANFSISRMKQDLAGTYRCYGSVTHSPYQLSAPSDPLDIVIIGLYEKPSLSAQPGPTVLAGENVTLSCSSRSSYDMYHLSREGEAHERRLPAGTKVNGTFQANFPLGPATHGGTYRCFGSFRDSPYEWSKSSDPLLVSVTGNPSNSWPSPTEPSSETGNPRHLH

immobilized KIR 2DS1 [25] = target: immobilized KIR 2DS1 (UniProt Q14954); assay: SPR, KIR2DS1 chip; second Ab after first Ab 1-7 F9
[26] = target: KIR2DL3 recombinant protein (entire extracellular domain, produced in E. coli, immobilized on Biacore chip) (human) (UniProt P43628); assay: SPR (Biacore), KIR2DL3 immobilized on CM5, soluble antibody 1x10^-7 to 4x10^-10 M
[27] = target: KIR2DL3 recombinant protein (entire extracellular domain, produced in E. coli, immobilized on Biacore chip) (human) (UniProt P43628); assay: SPR, KIR2DL3 chip; second Ab after first Ab 1-6 F5
[28] = target: KIR2DL1(R131W)-hFc (human) (UniProt P43626); assay: ELISA, KIR2DL1(R131W)-hFc against KIR2DL1-hFc, mAb at 1 µg/ml
KIR2DL1(R131W)-hFc (human), sequence (P43626 22-245 R152W): as the sequence (Q14954 22-245 limits assumed) above, with K70T, L90V, P114L, R131W, T154P, N163D, R182H, E216K counted along it

immobilized KIR 2DS1 [29] = target: immobilized KIR 2DS1 (UniProt Q14954); assay: SPR competition, KIR2DS1 chip; competitor (second Ab) 1-4 F1
immobilized KIR 2DS1 [30] = target: immobilized KIR 2DS1 (UniProt Q14954); assay: SPR, KIR2DS1 chip; second Ab alone (field of first Ab 1-7 F9)
[31] = target: KIR2DL3 recombinant protein (entire extracellular domain, produced in E. coli, immobilized on Biacore chip) (human) (UniProt P43628); assay: SPR competition, KIR2DL3 chip; competitor (second Ab) 1-6 F5
[32] = target: KIR2DL1 recombinant protein (entire extracellular domain, produced in E. coli, immobilized on Biacore chip) (human) (UniProt P43626); assay: SPR, KIR2DL1 chip; second Ab after first Ab 1-6 F5
[33] = target: KIR2DL1 recombinant protein (entire extracellular domain, produced in E. coli, immobilized on Biacore chip) (human) (UniProt P43626); assay: SPR competition, KIR2DL1 chip; competitor (second Ab) EB6
[34] = target: KIR2DL3 recombinant protein (entire extracellular domain, produced in E. coli, immobilized on Biacore chip) (human) (UniProt P43628); assay: SPR, KIR2DL3 chip; second Ab alone (field of first Ab 1-6 F5)
[35] = target: KIR2DL1 recombinant protein (entire extracellular domain, produced in E. coli, immobilized on Biacore chip) (human) (UniProt P43626); assay: SPR (Biacore), KIR2DL1 immobilized on CM5, soluble antibody 1x10^-7 to 4x10^-10 M
immobilized KIR 2DS1 [36] = target: immobilized KIR 2DS1 (UniProt Q14954); assay: SPR competition, KIR2DS1 chip; competitor (second Ab) 1-7 F9
[37] = target: KIR2DL1 recombinant protein (entire extracellular domain, produced in E. coli, immobilized on Biacore chip) (human) (UniProt P43626); assay: SPR competition, KIR2DL1 chip; competitor (second Ab) 1-6 F5
[38] = target: KIR2DL3 recombinant protein (entire extracellular domain, produced in E. coli, immobilized on Biacore chip) (human) (UniProt P43628); assay: SPR competition, KIR2DL3 chip; competitor (second Ab) gl183
[39] = target: KIR2DL1 recombinant protein (entire extracellular domain, produced in E. coli, immobilized on Biacore chip) (human) (UniProt P43626); assay: SPR, KIR2DL1 chip; second Ab alone (field of first Ab 1-6 F5)
immobilized KIR 2DS1 [40] = target: immobilized KIR 2DS1 (UniProt Q14954); assay: SPR competition, KIR2DS1 chip; competitor (second Ab) DF200

KIR2DL1 recombinant protein (entire extracellular domain, produced in E. coli, immobilized on Biacore chip) (human), sequence (P43626 22-245): as the sequence (Q14954 22-245 limits assumed) above, with K70T, L90V, P114L, T154P, N163D, R182H, E216K counted along it

| Substance | % inhibition of second antibody binding [2] [%] | RU, direct binding of second antibody [3] [RU] | % inhibition of second antibody binding [5] [%] | % inhibition of second antibody binding [6] [%] | % inhibition of second antibody binding [7] [%] | RU, second antibody with first antibody present [8] [RU] | RU, direct binding of second antibody [9] [RU] | RU, second antibody with first antibody present [11] [RU] | % inhibition of second antibody binding [12] [%] | RU, direct binding of second antibody [13] [RU] | % inhibition of second antibody binding [14] [%] | RU, second antibody with first antibody present [15] [RU] | RU, second antibody with first antibody present [16] [RU] | % inhibition of second antibody binding [17] [%] | RU, second antibody with first antibody present [18] [RU] | % inhibition of second antibody binding [19] [%] | % inhibition of second antibody binding [20] [%] | RU, direct binding of second antibody [21] [RU] | % inhibition of second antibody binding [22] [%] | RU, direct binding of second antibody [23] [RU] | other results |
| --- | --- | --- | --- | --- | --- | --- | --- | --- | --- | --- | --- | --- | --- | --- | --- | --- | --- | --- | --- | --- | --- |
| EB6 (IgG1 anti KIR2DL1) (antibody) | 40 | 260 | 23 | 60 | 65 | 180 | 460 | 320 | 48 |  |  |  |  |  |  |  |  |  |  |  | RU, second antibody with first antibody present [1]: 200 RU; % inhibition of second antibody binding [4]: 57%; RU, direct binding of second antibody [10]: 460 RU |
| GL183 (IgG1 anti KIR2DL3) (antibody) |  |  |  |  |  |  |  |  |  | 800 | 18 | 330 | 200 | 40 | 570 | 8 | 76 | 620 | 75 | 1240 |  |
| monoclonal antibody DF200 produced by hybridoma DF200 | 80 | 350 | 15 |  | 27 | 545 | 600 | 310 | 92 | 770 | 16 | 210 | 450 | 75 | 760 |  | 62 | 790 | 75 | 1140 | % inhibition of second antibody binding (immobilized KIR 2DS1 [24]): 70%; RU, second antibody with first antibody present (immobilized KIR 2DS1 [25]): 1090 RU; Kd [26]: 2 nM; RU, second antibody with first antibody present [27]: 760 RU; reduction in binding compared to wild type [28]: 10%; % inhibition of second antibody binding (immobilized KIR 2DS1 [29]): 87%; RU, direct binding of second antibody (immobilized KIR 2DS1 [30]): 900 RU; % inhibition of second antibody binding [31]: 4%; RU, second antibody with first antibody present [32]: 290 RU; % inhibition of second antibody binding [33]: 90%; RU, direct binding of second antibody [34]: 800 RU; Kd [35]: 10.9 nM; % inhibition of second antibody binding (immobilized KIR 2DS1 [36]): 15%; % inhibition of second antibody binding [37]: 15%; % inhibition of second antibody binding [38]: 20%; RU, direct binding of second antibody [39]: 350 RU |
| monoclonal antibody NKVSF1 |  | 475 | 12 | 90 | 2 | 534 | 545 | 440 | 95 | 870 | 8 | 890 | 830 |  | 1090 | 95 | 15 | 990 | 68 | 2400 | RU, second antibody with first antibody present (immobilized KIR 2DS1 [25]): 1200 RU; RU, second antibody with first antibody present [27]: 950 RU; reduction in binding compared to wild type [28]: 10%; % inhibition of second antibody binding (immobilized KIR 2DS1 [29]): 100%; % inhibition of second antibody binding (immobilized KIR 2DS1 [40]): 100%; RU, direct binding of second antibody (immobilized KIR 2DS1 [30]): 1350 RU; % inhibition of second antibody binding [31]: 18%; RU, second antibody with first antibody present [32]: 440 RU; % inhibition of second antibody binding [33]: 90%; RU, direct binding of second antibody [34]: 990 RU; % inhibition of second antibody binding (immobilized KIR 2DS1 [36]): 45%; % inhibition of second antibody binding [37]: 13%; % inhibition of second antibody binding [38]: 85%; RU, direct binding of second antibody [39]: 475 RU |
